Laboratory results as given in the supplement of paper PMC9170038.

How the values were obtained:
Details in all cases: FMN input: 0 or 200 uM; Eterna round: R93 (includes R88 designs)
MS2 coat protein [1] = assay: apparent KD of MS2 coat protein, switch OFF state (with FMN for OFF switches, without FMN for ON switches); designed switch direction (-1 OFF switch, 1 ON switch): 1; higher = weaker reporter binding
How it was run: (§1)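 Designed RNA switches were transcribed on-chip from Illumina sequencing clusters. They were then titrated with SNAP-549-labelled MS2 coat protein (twofold steps, 0.7 or 1.5 nM to 3 µM; 0.8–1.5 h to 10–20 min per step) in 100 mM Tris-HCl pH 7.5, 80 mM KCl, 4 mM MgCl2, without or with constant ligand. Apparent KD is the per-design median of normalised cluster binding-curve fits.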

MS2 coat protein [2] = assay: apparent KD of MS2 coat protein, switch ON state; designed switch direction (-1 OFF switch, 1 ON switch): 1; higher = weaker reporter binding
How it was run: as §1

MS2 coat protein [3] = assay: apparent KD of MS2 coat protein, switch OFF state (with FMN for OFF switches, without FMN for ON switches); designed switch direction (-1 OFF switch, 1 ON switch): -1; higher = weaker reporter binding
How it was run: as §1

MS2 coat protein [4] = assay: apparent KD of MS2 coat protein, switch ON state; designed switch direction (-1 OFF switch, 1 ON switch): -1; higher = weaker reporter binding
How it was run: as §1

Sequence	apparent KD of MS2 coat protein (MS2 coat protein [1])	apparent KD of MS2 coat protein (MS2 coat protein [2])	apparent KD of MS2 coat protein (MS2 coat protein [3])	apparent KD of MS2 coat protein (MS2 coat protein [4])
AAAAAACAUGAGGAUCACCCAUGUAAAAAAAUCACAGGAUAUAAGGUCGCGAAAGCGACCUUAGAAGGGUGAUCAA	421 nM	58.8 nM		
AGUAAACAUGAGGAUCACCCAUGUGGUGGCCCAUGAGGAUAUCCAUGCGCAAUGCGCAUAGGAGAAGGCAUAGCCA [Enenerla]	52.6 nM	125 nM		
CAGCGCUGUCGAGAGGAUAUGCGGUGAAGGACAUGAGGAUCACCCAUGUAAGCGAUAGCAUUACGGUAGAAGGCUCUGCAGCUGC [Ceriso]	143 nM	95.7 nM		
AGGAAACAUGAGGAUCACCCAUGUAAAAAUAUGGAAGGAUAUGGAAACACGAAAGUGAAACCAGAAGGUCUGAAAA [77%, Mat - Mod of Eli, 20]	23.3 nM	16.6 nM		
AUAAAAGAAAGGCAGGAUAUCCAAAGAAAAACAUGAGGAUCACCCAUGUAAAGAAAGAAAAAGUGGGAGAAGGGCCAAAAGAAUA [73%, More Fisker Same State 2, D3, 3]	27.6 nM	25.3 nM		
AGAAAUAAAAGCUAGGAUAUCCAAAAGAAAACAUGAGGAUCACCCAUGUAAAAGAAAAUAAAGUGGGAGAAGGAGCAAAAUAAGA [Starry modified]	35.6 nM	18 nM		
AAAAAACAUGAGGAUCACCCAUGUCGAAAGACGUGAGGAUAUGUACAGACUUCGGUCUGUACAGAAGGCAUGAAAA [SS1 - 1057]	176 nM	79.5 nM		
AACAAUCUAUCUGAGGAUAUGUGUCGAAAGACAUGAGGAUCACCCAUGUAAAAACAUGAAAAAACACAGAAGGCAGAUAGAUUGA [SS2: 1146]	81.5 nM	62.6 nM		
UAAAAAAAAAGACAGGAUAUCCAAAAGAAAACAUGAGGAUCACCCAUGUAAAAGAAAAUAAAAUGGGAGAAGGGUCAAAAAAAAU [Mat - Same State 2 - JL mod - D79]	53.5 nM	31 nM		
AUACAAACGUAUGAGGAUAUCCUUAAUAAAACAUGAGGAUCACCCAUGUGAAUAAAAUAACAAUUGGAGAAGGCAUACGUACAAU [Mat - Same state - Malcolm Mod - D137]	18.9 nM	16.6 nM		
GGGAGACAUGAGGAUCACCCAUGUGAGAAGAGGCGAGGAUAUCGAAAGAAAGAAGAGAAACGAGAAGGCGCGAGCA [salish99-SS1-052]	60.4 nM	39 nM		
AGAAAUAAAAGAGAGGAUAUCCAAAAUAAAACAUGAGGAUCACCCAUGUGAAACAAAACAAAAUGGGAGAAGGCUCAAAAUAAGA [Topaz 17]	33.9 nM	15.7 nM		
AUAUAUAUAAGGUAGGAUAUUCUAAAGUAAACAUGAGGAUCACCCAUGUAAAGAAAGAAACUCAUGGAGAAGGACCAUAUAUAUA [Modifying Tesla's highscorer (77%) - Adding G segment]	84.8 nM	19.9 nM		
CGGUAAGAGAGAGAGGAUAUCCAAAGGAAAACAUGAGGAUCACCCAUGUAGAAGGUAGGAAAUUGGGAGAAGGCUCAAGAGAGAG [salish99-ss2-133]	61.7 nM	58.4 nM		
CUGGACCUAGGAUAGGAUAUGUGAAUAAUUACAUGAGGAUCACCCAUGUCCAUUUAUAUGGGAACAUAGAAGGGUUUUGGUUAAG [Mat - Same state - Malcolm Mod - D147]	164 nM	103 nM		
AGUCAACAUGAGGAUCACCCAUGUCUGAGGGCAUGAGGAUAUCUAGAUGGGCAGCAUGAUAGAGAAGGCAUGCGCC [Betea]	199 nM	185 nM		
AGGAAACAUGAGGAUCACCCAUGUAAAAUAAUGGGAGGAUAUGCGAAAAGAAAAAGAAAAGCAGAAGGCCUAAGAA [62%, Something completely different, 4]	98.6 nM	18.6 nM		
GGCAGGAAGAGAGAGGAUAUCCAAAGGAAAACAUGAGGAUCACCCAUGUAAAAGGUAGGAAAUUGGGAGAAGGCUCAAGAGAGAG [salish99-ss2-099]	35.4 nM	30.9 nM		
AAAAUAUAAACAGAGGAUAUCCAAAGAACCACAUGAGGAUCACCCAUGUAAAGAAAGAAUAAGUGGGAGAAGGUUGAAAUAAUAA [Designing denovo 26]	74.9 nM	49.9 nM		

Sequence	apparent KD of MS2 coat protein (MS2 coat protein [1])	apparent KD of MS2 coat protein (MS2 coat protein [2])	apparent KD of MS2 coat protein (MS2 coat protein [3])	apparent KD of MS2 coat protein (MS2 coat protein [4])
AAAAAACAUGAGGAUCACCCAUGUCCUCGGACGUGAGGAUAUGUACAGACUUCGGUCUGUACAGAAGGCAUGUAAA [SS1 - 1051]	379 nM	555 nM		
AUAACACAUGAGGAUCACCCAUGUAGAUACAAGUCAGGAUAUGCAACCUCAUGAAAAAAAGCAGAAGGGACAAUAA [SS 1 Tesla 3]	85.4 nM	27.5 nM		
AAACAGAUAGGACAGGAUAUGUCGUGAUAAACAUGAGGAUCACCCAUGUGAGACAUCACGUAAUCGCAGAAGGGUCCUGUCUUAC [Aquditiri]	15.6 nM	16.3 nM		
AAAACACAUGAGGAUCACCCAUGUAAAAACAUGAGAGGAUAUGCUUGGAAAACAUGCUAUGCAGAAGGCUCAAGUG [SS1 - 9]	30.1 nM	18.2 nM		
CAGAUACAUGAGGAUCACCCAUGUUAGGUAGAACAAGGAUAUCUAGAUAGAUAAAAAUAUAGAGAAGGUGUAUAAC [JR_SS001_Sub207]	24.2 nM	19.8 nM		
GUGUACAGAGGAUAUACAUAAGCAUGGAAACAUGCAACUUCACAUGAGGAUCACCCAUGUAGAAGGCUGUACAC [Ex2: 729]			13.7 nM	12.1 nM
AAGAAACAUGAGGAUCACCCAUGUGAGGAUAUUGAAGAAAGAAAGAAAGAAAGAAGAACAAGAAGGCACAAAGG [Quintus Magnus Maximus]			35 nM	26.9 nM
AAAAAGCUAGGAUAUACAUGAAAAAAAAAAAAGUAAAAAAAACAUGAGGAUCACCCAUGUAGAAGGAGCAAAAA [water's exclusion 2 last]			37 nM	40.4 nM
UUUACGUGAGGAUAUGCGAAUAGUACGUAAGUCUUACAGACGCAGAAGGCACAUGAGGAUCACCCAUGUGAACC [JR_Exc004_Sub310]			55.9 nM	22.7 nM
AUAGUACAUGAGGAUCACCCAUGUCAGGAUAUUGGAUAUGACAUAAAAAAAAUGUUAACGAGAAGGGACUAUAA [EX1 Malc#16]			27.7 nM	29.2 nM
AAGAAGACAGGAUAUACAAAAUAAAAGAAAAGAAAGAAAGAACAUGAGGAUCACCCAUGUAGAAGGGUCAAGAA [Sekhemkare Amenemhat V]			31.1 nM	69.9 nM
CGGAGGAAAGGAUAUACACAAUAAAAGAAGUGAUCCUUGAGACAUGAGGAUCACCCAUGUAGAAGGUUCACUGA [Zaza]			15.9 nM	21.9 nM
AAAAUACAUGAGGAUCACCCAUGUGAGGAUAUGCGAAUAAAAAUAAAAUAAAAUAAAAGCAGAAGGCACGAAAA [EX 1 May 24]			32.8 nM	33.4 nM
AACAUGUGAGGAUAUAAAAUGAAUAUAAAUUAUUAUCUUGAUUAGAAGGCACAUGAGGAUCACCCAUGUCUGAA [E4-1.2]			25.2 nM	23.8 nM
GAAAAACAUGAGGAUCACCCAUGUGAGGAUAUACGAAAGUAGAAGGCACUAAAAGAAAAGAGAAGGAGAAAAGA [Meechl Ex1 R2 m2]			38.8 nM	19.9 nM
AGGAAACAUGAGGAUCACCCAUGUGAGGAUAUACAAAAGAAAAGAAAAGAAAGAAGAAGUAGAAGGUACAAGAA [Djedkare Isesi]			24.7 nM	21.7 nM
AUAAACGGAGGAUAUACAUGAGGAUCACCCAUGUAAAUAAAUAGGAGAGCCACAAUAAGUAGAAGGUCGAAUAA [JR_Exc003_Sub010]			32.4 nM	35.6 nM
AAAGCGGCAGGAUAUACAGGAACAAAAGUAUGUGCAUCCGCACAUGAGGAUCACCCAUGUAGAAGGGCUAAUAA [Ontiti]			270 nM	167 nM
GAAACUGGAGGAUAUACGAACAUGUCAAAAGACGUGAAGGGACAUGAGGAUCACCCAUGUAGAAGGCUAGAAAG [Mat - Exclusion 2 - JL mod - D99]			22.4 nM	74.9 nM
